Residue numbers refer to the chain shown, from its start. A value given as a limit tells only on which side of the number the result lay.

The source of these data is publication PMC4837482, “The complex binding mode of the peptide hormone H2 relaxin to its receptor RXFP1” (Nature Communications, 2016).

The target of one experiment is T1, RXFP1 G45W46-AA (Homo sapiens, UniProt Q9HBX9, G67A/W68A).
T1 construct: transiently transfected human embryonic kidney (HEK) 293T cells expressing full-length RXFP1 and mutants; expressed in transfected cells; host or cells: HEK293T
T1 sequence (Q9HBX9 23-757 G67A/W68A limits assumed): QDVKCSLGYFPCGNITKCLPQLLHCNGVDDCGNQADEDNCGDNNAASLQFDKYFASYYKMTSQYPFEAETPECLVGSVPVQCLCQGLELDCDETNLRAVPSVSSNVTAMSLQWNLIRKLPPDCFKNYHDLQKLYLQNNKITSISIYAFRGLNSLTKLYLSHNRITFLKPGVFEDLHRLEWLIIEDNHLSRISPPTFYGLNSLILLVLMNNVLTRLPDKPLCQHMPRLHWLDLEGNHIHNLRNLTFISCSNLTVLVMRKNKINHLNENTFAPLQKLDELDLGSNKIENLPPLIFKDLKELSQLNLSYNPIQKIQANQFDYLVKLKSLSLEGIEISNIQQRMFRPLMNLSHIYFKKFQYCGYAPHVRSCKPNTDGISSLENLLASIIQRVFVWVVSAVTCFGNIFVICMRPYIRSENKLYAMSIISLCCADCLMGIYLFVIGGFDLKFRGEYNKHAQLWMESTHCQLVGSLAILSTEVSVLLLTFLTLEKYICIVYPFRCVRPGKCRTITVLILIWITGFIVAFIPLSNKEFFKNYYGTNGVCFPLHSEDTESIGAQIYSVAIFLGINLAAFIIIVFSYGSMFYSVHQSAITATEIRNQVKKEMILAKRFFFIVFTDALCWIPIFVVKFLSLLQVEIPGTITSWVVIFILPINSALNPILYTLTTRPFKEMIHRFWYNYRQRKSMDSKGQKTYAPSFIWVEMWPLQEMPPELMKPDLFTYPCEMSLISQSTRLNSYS
The experiment is described as follows: Eu-H2 relaxin saturation binding assay, transfected HEK293T cells. The conditions noted are these: construct G45W46-AA, maximum H2 concentration 15 nM.

In a further experiment the target is T2, RXFP1 F50A (Homo sapiens, UniProt Q9HBX9, F72A).
T2 construct: expressed in transfected cells; host or cells: HEK293T
T2 sequence (Q9HBX9 23-757 F72A limits assumed): T1 sequence (Q9HBX9 23-757 G67A/W68A limits assumed) with A45G, A46W, F50A
Described as above. The following applies: F50A RXFP1 versus wild-type RXFP1.

Another experiment deals with T3, RXFP1 G41D42-AA (Homo sapiens, UniProt Q9HBX9, D64A/G63A).
T3 construct: transiently transfected human embryonic kidney (HEK) 293T cells expressing full-length RXFP1 and mutants; expressed in transfected cells; host or cells: HEK293T
T3 sequence (Q9HBX9 23-757 G63A/D64A limits assumed): T1 sequence (Q9HBX9 23-757 G67A/W68A limits assumed) with G41A, D42A, A45G, A46W
As to the kind of experiment: cAMP activity assay (pCRE β-galactosidase reporter), transfected HEK293T cells. It counts as cell-based. The procedure: Media was aspirated and plates stored frozen at −80 °C overnight. […] H2 relaxin dilutions were prepared in minimal media containing 1% DMSO. Positive and negative control stimulations were achieved by incubation with 5 μM Forskolin and minimal media/1% DMSO, respectively. Plates were developed by 10 min of incubation in 25 μl of lysis buffer 1 (100 mM Na2HPO4, pH 8.0, 0.2 mM MgSO4 0.01 mM MnCl2); a further 10 min of incubation in 100 μl of buffer 2 (100 mM Na2HPO4, pH 8.0, 2 mM MgSO4, 0.1 mM MnCl2, 0.5% Triton X-100, 40 mM β-mercaptoethanol); then to each well 25 μl of the β-galactosidase substrate, chlorophenol red-β-D-galactopyranoside (Roche) was added. All incubation steps were conducted with orbital shaking. Color-change was monitored and readings were taken on a Benchmark Plus Microplate Reader (Bio-Rad) at 570 nm. A minimum of three separate experiments were performed, each of them in triplicate, and data were pooled and presented as percentages of the maximum response induced by 5 μM Forskolin±s.e.m.

For the substance “H2 relaxin: two-chain 6-kDa peptide hormone structurally related to insulin; recombinant human gene-2 H2 relaxin provided by Corthera”, the dissociation constant Kd with RXFP1 G45W46-AA is over 20 nM. Also, in the experiment with RXFP1 F50A, the “loss in H2 relaxin binding” value was “tenfold”. Further, in the experiment with RXFP1 G41D42-AA (G41A/D42A RXFP1 versus wild-type RXFP1), the “loss of H2 relaxin-stimulated cAMP activity” value is 5,000 fold. Besides, the “H2 relaxin Emax” value with RXFP1 G41D42-AA (construct G41D42-AA, percentage of maximum response to 5 μM Forskolin, ±s.e.m.) is 106.8±46.67 (3) %.
